Reference: patent US20250144194A1 (KAIMI BIOMEDICINE CHENGDU, published 2025)

T1: FcγRIIA protein (UniProt P12318 36-218, limits assumed)
T1 construct: also called hFcγRIIA
T1 sequence (looked up): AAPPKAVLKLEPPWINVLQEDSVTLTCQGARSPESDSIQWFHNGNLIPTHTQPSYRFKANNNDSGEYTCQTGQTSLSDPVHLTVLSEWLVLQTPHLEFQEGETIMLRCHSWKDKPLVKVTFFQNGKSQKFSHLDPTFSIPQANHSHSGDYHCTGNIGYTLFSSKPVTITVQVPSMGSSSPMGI


Molecular target: T1, FcγRIIA protein
Assay: BLI, multi-concentration (5000-312.5 nM of Fc variant)
Excerpt: The Seq2-Sf9 and Seq3-Sf9 are identified using Coomassie Brilliant Blue stained SDS-PAGE gel, with BSA as a control protein. The arrows indicate the positions of Seq2-Sf9 and Seq3-Sf9, and it can be determined that the purified protein is obtained with a molecular weight of about 26 kDa. […] The curves shown from bottom to top indicate that the concentrations of the Seq2-Sf9 and Seq3-Sf9 proteins […] in sequence.

Kd [nM]	Binder
789	Seq2-Sf9 (other, non-mammalian (insect, Sf9) N-glycosylation at position 297 (EU numbering), without sialic acid, Expressed from the pFastBacHTa-gp64 vector in Sf9 cells and purified from the supernatant by Protein A, about 26 kDa on SDS-PAGE; also called mouse Fc with three mutations) VDKKIVPADCGCAPCICAVPEVSSVFIFPPKPKDVLTITLTPKVTCVVVDISKDDPEVQFSWFVDDVEVHTAQTQPREEQFNSTFRSVSELPIMHQDWLNGKEFKCRVNSAAFPAPIEKTISKTKGRPKAPQVYTIPPPKEQMAKDKVSLTCMITDFFPEDITVEWQWNGQPAENYKNTQPIMDTDGSYFVYSKLNVQKSNWEAGNTFTCSVLHEGLHNHHTEKSLSHSPGL
450	Seq3-Sf9 (other, non-mammalian (insect, Sf9) N-glycosylation at position 297 (EU numbering), without sialic acid, also called mouse Fc with five mutations) VDKKIVPADCGCAPCICAVPEVSSVFIFPPKPKDVLTITLTPKVTCVVVDISKDDPEVQFSWFVDDVEVHTAQTQPREEQFNSTFRSVSELPIMHQDWLNGKEFKCRVNSAAFPLPEEKTISKTKGRPKAPQVYTIPPPKEQMAKDKVSLTCMITDFFPEDITVEWQWNGQPAENYKNTQPIMDTDGSYFVYSKLNVQKSNWEAGNTFTCSVLHEGLHNHHTEKSLSHSPGL
